Reference: the nanobody polyreactivity screen of Harvey et al. (2022)

Test: yeast display, Sf9 membrane polyspecificity reagent, FACS + sequencing; frameworks hold sequencing errors
Method in brief: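 Sorting gates, low and high (top ~1%), were placed on anti-HA fluorescence to track expression and on streptavidin fluorescence to track reagent binding. A clone's polyreactivity label is taken from the gate it came out of. The reagent was 10% biotinylated, detergent-solubilized Sf9 membrane, applied for 1 hour at 4 °C to galactose-induced yeast display cells.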

Sequence | polyreactivity (PSR sort gate)
QVQLVESGGGLVQAGGSLRLSCAASGSTFDGNDMGWYRQAPGKERELVAAITIGGGSTYYADSVKGRFTISRDNAKNTVYLQMNSLKPEDTAVYYCAAVYFYSWEGDGDYWGQGTQVTVSS | low polyreactivity
QVQLVESGGGLVQAGGSLRLSCAASGSTFDGYAMGWSRQAPGKERELVAAITFDGSSTYYADSVKGRFTISRDNAKNTVYLQMNSLKPEDTAVYYCAAASSYWVLWDDYWGQGTQVTVSS | low polyreactivity
QVQLVESGGGLVQAGGSLRLSCAASGSTFDGYAMGWYRQAPGKERELVAAINWGGGSTRYADSVKGRFTISRDNAKNTVYLQMNSVKPEDTAVYYCAARRFAYYFQYLVGGYWGQGTQVTVSS | high polyreactivity
QVQLVESGGGLVQAGGSLRLSCAASGSTFDGYTMGWYRQAPGKERELVAAISWRGTSTYYADSVKGRFTISRDNAKNTVYLQMNSLKPEDTAVYYCGAENWKPRVYWIYSGHHGYWGQGTQVTVSS | low polyreactivity
QVQLVESGGGLVQAGGSLRLSCAASGSTFDINAMGWYRQAPGKERELVAAINWSGDSTYYADSVKGRFTISRDTAKNTVYLQMNSLKPEDTAVYYCNADTIVAWFDIFEEMDSWGQGTQVTVSS | low polyreactivity
QVQLVESGGGLVQAGGSLRLSCAASGSTFDIYAMGWYRQAPGKERELVAAITSGGSTYADSVKGRFTISRDNAKNTVYLQKNSLKPVETAVYYSNADRWFGNYRHLTFLNDYWGQGTQVTVSA | low polyreactivity
QVQLVESGGGLVQAGGSLRLSCAASGSTFDIYAMGWYRQAPGKERELVAAITVSGGSTYYADSVKGRFTISRDNAKNTVYLQMNSLKPEDTAVYYCNADWSGWQGWYNYWGQGTQVTVSS | low polyreactivity
QVQLVESGGGLVQAGGSLRLSCAASGSTFDKNDMGWYRQAPGRERELVAAITSSGSSTYYADSVKGRFTISRDNAKNTVYLQMNSLKPADTAVYYCAADKYYYDRLSPSGDYWGQGTQVTVSS | low polyreactivity
QVQLVESGGGLVQAGGSLRLSCAASGSTFDNTMGWYRQEPGKEKEFVATISWRGGSTYYADSVKGRFTISRDNAKNTVYLQMNSLKPEDTAVYYCAAEVDYRVYWNEVDYWGQGTQVNVSS | low polyreactivity
QVQLVESGGGLVQAGGSLRLSCAASGSTFDNYAMGWYRQAPGKERELVAAINSRGGRTYYADSVKGRFTISRDNAKNTVYLQMNSLKPDDTAVYYCAAVGATHRFDYWGQGTQVTVSS | high polyreactivity
QVQLVESGGGLVQAGGSLRLSCAASGSTFDNYAMGWYRQAPGKERELVAAITTGVTTYYADSVKGRFTISRDNAKNTVYLQMISLKPEDTAVYYCAADYVSYSQARHEYGYWGQGTQVTVSS | low polyreactivity
QVQLVESGGGLVQAGGSLRLSCAASGSTFDPNVMGWYRQAPGKERELVAAISSIGGSTYYADSVKGRFTISRDNAKNTVYLQMNSLNPQDTAVYYCAAGYPRFGYDYWGQGTQVTVSS | high polyreactivity
QVQLVESGGGLVQAGGSLRLSCAASGSTFDPYAMGWYRQAPGKERELVAAISRSGASTYADSVKGRFTISRDNAKNTVYLQMNSLKPEDTAVYYCAADSGYPYDYWGQGTQVTVSS | low polyreactivity
QVQLVESGGGLVQAGGSLRLSCAASGSTFDPYAMGWYRQAPGKERELVATINTGGDTHYADSVKGRFTISRDNAKNTVYLQMNSLKPEDTAVYYCNADYGKSRWIFDYWGQGTQVTVSS | low polyreactivity
QVQLVESGGGLVQAGGSLRLSCAASGSTFDPYGKGWYRQAPGKERELVATITYSSGSTSYADSVKGRFTISRDHAKNTVYLQMNSLKPEDTAVYYCAKKYYTGYGYWGQGTQVTVSS | low polyreactivity
QVQLVESGGGLVQAGGSLRLSCAASGSTFDQNGMGWYRQAPGKERELVATISTSAGTYYADSVKGRFTISRDNAKNTVYLQMNSLKPEDTAVYYCNADLGGQYKEFDYWGQGTQVTVSS | low polyreactivity
QVQLVESGGGLVQAGGSLRLSCAASGSTFDQYAMGWYRQEPGKERELGAAISGSGGRTYYADSVKGRFTISRDNAKNTVYLQLNSLKPEDTAVYYCNTRAWRWGTDNSWGQGTQVTVSS | high polyreactivity
QVQLVESGGGLVQAGGSLRLSCAASGSTFDRNAMGWYRPAPGKERELVAAISWTGTSTRYADSVKGRFTISRDNAKNTVYLHMNSLKPEDTAGYYCAARGYSYYQRLYYWGQGTQVTVSS | high polyreactivity
QVQLVESGGGLVQAGGSLRLSCAASGSTFDRNVMGWYRQAPGKERELVAAISRVSSTNYSDSVKGRFTISRDNAKNTVYLQMNSLKPEDTAVYYCAADRAGSIMNYWGQGTQVTVSS | low polyreactivity
QVQLVESGGGLVQAGGSLRLSCAASGSTFDRYAMGGYIQAPGKERELVAAISWSGGSTYYADSVKGRFTISRDNAKNTVYFQMNSLKPEDTAVYYCASPYYYLHNQRYWGYDYWGQGTQVTVSS | high polyreactivity
QVQLVESGGGLVQAGGSLRLSCAASGSTFDRYDMGWYRQAPGKERELVAAITRRGGSTYYADSVKGRFTISRDNAKNTVYLQMNSLKPEDTAVYYCNAKHFAYSVAHPYLRYGYDYWGQGTQVTVSS | low polyreactivity

Sequence | polyreactivity (PSR sort gate)
QVQLVESGGGLVQAGGSLRLSCAASGSTFDSNAMGWYRQAPGKERELVAPISGSASRTYYADSVKGRFTISRDNAKNTVYLQMNSLKPEDTAVYYCAAVRYHMYYWGQGTQVTVSS | high polyreactivity
QVQLVESGGGLVQAGGSLRLSCAASGSTFDSYAMGWYRPAPGKERELVAAISSGGSTNYADSVKGRFTISRDNAKNTVYLQMYSLKPEDTAVYYCAAYGGHIWWLYRHYGYDYWGQGTQVTVSS | low polyreactivity
QVQLVESGGGLVQAGGSLRLSCAASGSTFDTNAMGWSRQAPGKERELVAAISASGGSTYYADSVKGRFTISRDNAKNTVYLQMNSLKPEDTAVYYCAKTYSTRWWGNGGDYWGQGTQVTVSS | high polyreactivity
QVQLVESGGGLVQAGGSLRLSCAASGSTFDTNAMGWYRQAPGKELVAAISSAGSTYYADSVKGRFTISRDNAKNTVYLQMNSLKPVATAVYYCAAGNAESPYESLEDDYWGQGTQVTVSS | low polyreactivity
QVQLVESGGGLVQAGGSLRLSCAASGSTFDVNAMGWYRQAPGKERELVAAISWNSGSTYYADSVKGRFTISRDNAKNTVYLQMNSLKPEDTAVYYCAATYGTGRRSKYGYWGQGTQVTVSS | high polyreactivity
QVQLVESGGGLVQAGGSLRLSCAASGSTFDVYAMGGYRQAPGKERELVAVISSSDGGITYYADSVKGRFTISRDNAKNTVYLQMNSLKPEDTAVYYCNAESFIWLPQYSDYDYWGQGTQVTVSS | high polyreactivity
QVQLVESGGGLVQAGGSLRLSCAASGSTFDVYAMGWYRQAPGKERELVAAITQSGGSTYYADSVKGRFTISRDNAKNTVYLQMNSLKTEDTAVYYCAAREWRSFDYWGQGTQVTVSS | low polyreactivity
QVQLVESGGGLVQAGGSLRLSCAASGSTFDVYAMGWYRQAPGKERELVAAITSGGTTNYADSVKGRFTISRDNAKNTVYLQMNSLKPEDTAVYYCAKDSRNVYWDYGYWGQGTQVTVSS | low polyreactivity
QVQLVESGGGLVQAGGSLRLSCAASGSTFDWYTMGWYRQAPGKERELVAAISSGGRTYYADSVKGRFTISRDNAKNTVYLQMNSLKPEDTAVYYCAVAWRVGITKYGYWGQGTQVTVSS | high polyreactivity
QVQLVESGGGLVQAGGSLRLSCAASGSTFDWYVMGWYRKAPGKERELVAAINQGSGSTYYADSVKGRFTISRDNAKNTVYLQMNSLKPEDTAVYYCAADRYGAGYLYWPYDYWGQGTQVTVSS | low polyreactivity
QVQLVESGGGLVQAGGSLRLSCAASGSTFDYNAMGWYRQAPGKEMELVAAISRGGNTDYADSVKGRFTISRDNAKNTVYLQMNSLKPEDSAVYYCDADALLEWFDVAYFAYEYWGQGTQVTVSS | low polyreactivity
QVQLVESGGGLVQAGGSLRLSCAASGSTFDYNAMGWYRQAPGKERELVAAINSGASTYYADSVKGRFTISRDNAKNTVYLQMNSLKPEDTAVYYCAKDYPYIGDYWGQGTQVTVSS | low polyreactivity
QVQLVESGGGLVQAGGSLRLSCAASGSTFDYNAMGWYRQAPGKERELVAAIRWSGDTTYYADSVKGRFTISRDNAKNTVYLQRNSLKPEDTAVYYCANVPIYRYGVWAMNYWGQGTQVTVSS | high polyreactivity
QVQLVESGGGLVQAGGSLRLSCAASGSTFDYNAMGWYRQAPGKERELVAAISRGGNTYYADSVKGRFTISRDNAKNTVYLQMNSLKPEDTAVYYCAKDSYGSYRFVRKRQKAYGYWGQGTQVTVSS | low polyreactivity
QVQLVESGGGLVQAGGSLRLSCAASGSTFDYYAMGRYRQAPGKERELVAAITTGGRTYYADSVKGRFTISRDNAKNTVYLQMNSLKPEDTAVYYCRERDYWGQGTQVTVSS | low polyreactivity
QVQLVESGGGLVQAGGSLRLSCAASGSTFDYYAMGWYRPAPGKERELVAGINRDDGNTYYADSVKGRFTISRDNAKNTVYLQMNSLKPEDTAVYYCAADSSWQGMDYSGQGTQVTVSS | low polyreactivity
QVQLVESGGGLVQAGGSLRLSCAASGSTFDYYAMGWYRQAPGKERELVAAISRTGGRTYYADSVKGRFTISRDNAKNTVYLQMNSLKPEDTAVYYCNAVTPIGGGDYDYWGEGTQVTVSS | low polyreactivity
QVQLVESGGGLVQAGGSLRLSCAASGSTFDYYAMGWYRQTPGKERELVAAISWSGGSTYYADSVKGRFTISRDNAKNTVYLQMNSLKPEDTAVYYCAAATNWGGEYWGQGTQVTVSS | high polyreactivity
QVQLVESGGGLVQAGGSLRLSCAASGSTFDYYDMGWYRQAPGKERELVATITSGGSTNYADSVKGRFTISRDNAKNNVYLQMNILKTEDTAVFYCASDIGGDGEGYDYWGQGTQVTVSS | low polyreactivity
QVQLVESGGGLVQAGGSLRLSCAASGSTFDYYDMGWYRQSPGKERELVAAISSGGDSTYYADSVKGRFTISRDNAKNTVYLQMNSLKPEDTAVYNCAAAVYYGQSVWYYYWGQGTQVTVSS | high polyreactivity
